One block for each molecule: values may come before it.
Tests used:
[1] = biological target: zip from GCN4 (T25-zip and T18-zip, positive control of the BACTH kit); experiment: two-hybrid
[2] = biological target: T1, N-terminally His-tagged PflB (E. coli, UniProt P09373 2-760); experiment: cross-linking
T1 sequence: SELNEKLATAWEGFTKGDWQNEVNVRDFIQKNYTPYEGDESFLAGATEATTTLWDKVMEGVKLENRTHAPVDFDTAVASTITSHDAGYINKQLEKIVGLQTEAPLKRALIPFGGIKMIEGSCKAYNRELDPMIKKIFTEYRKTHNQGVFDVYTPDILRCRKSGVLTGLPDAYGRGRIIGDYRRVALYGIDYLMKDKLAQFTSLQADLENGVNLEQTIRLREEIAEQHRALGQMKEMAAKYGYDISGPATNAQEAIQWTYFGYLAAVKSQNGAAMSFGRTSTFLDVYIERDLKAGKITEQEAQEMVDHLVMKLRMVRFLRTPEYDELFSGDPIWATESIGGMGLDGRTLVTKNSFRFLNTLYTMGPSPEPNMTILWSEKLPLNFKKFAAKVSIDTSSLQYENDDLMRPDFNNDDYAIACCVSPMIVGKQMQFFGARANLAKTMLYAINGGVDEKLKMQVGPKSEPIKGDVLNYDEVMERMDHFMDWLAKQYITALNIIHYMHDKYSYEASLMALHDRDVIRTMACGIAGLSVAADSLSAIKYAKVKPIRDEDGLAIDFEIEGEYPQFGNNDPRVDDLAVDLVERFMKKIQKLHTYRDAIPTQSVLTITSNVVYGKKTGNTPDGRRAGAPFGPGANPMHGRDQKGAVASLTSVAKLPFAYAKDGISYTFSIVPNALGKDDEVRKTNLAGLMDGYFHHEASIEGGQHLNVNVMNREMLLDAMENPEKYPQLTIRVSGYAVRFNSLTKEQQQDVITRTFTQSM

[3] = biological target: T1, N-terminally His-tagged PflB; experiment: pull-down

β-galactosidase activity [1]: 715 units
Molecule: zip from GCN4 (T25-zip and T18-zip, positive control of the BACTH kit) (domain or fragment)

binding result [2]: binds
B1: FocA, purified preparation used for BS2G cross-linking (natural protein, E. coli)
chain: MKADNPFDLLLPAAMAKVAEEAGVYKATKHPLKTFYLAITAGVFISIAFVFYITATTGTGTMPFGMAKLVGGICFSLGLILCVVCGADLFTSTVLIVVAKASGRITWGQLAKNWLNVYFGNLVGALLFVLLMWLSGEYMTANGQWGLNVLQTADHKVHHTFIEAVCLGILANLMVCLAVWMSYSGRSLMDKAFIMVLPVAMFVASGFEHSIANMFMIPMGIVIRDFASPEFWTAVGSAPENFSHLTVMNFITDNLIPVTIGNIIGGGLLVGLTYWVIYLRENDHH

B2: N-terminally Strep-tagged FocA (formate channel A) (natural protein, E. coli, UniProt P0AC23 1-285, looked up)
chain: B1 chain
binding result [3]: binds
